Assay results from patent US20240083948A1 (ADVANCED TECHNOLOGIES FOR NOVEL THERAPEUTICS, published 2024).

Legend:
Test in all cases: cell-based or functional assay
SGK (SGK1) = target: T1, SGK (SGK1) (UniProt O00141 60-431, limits assumed)
T1 sequence (looked up): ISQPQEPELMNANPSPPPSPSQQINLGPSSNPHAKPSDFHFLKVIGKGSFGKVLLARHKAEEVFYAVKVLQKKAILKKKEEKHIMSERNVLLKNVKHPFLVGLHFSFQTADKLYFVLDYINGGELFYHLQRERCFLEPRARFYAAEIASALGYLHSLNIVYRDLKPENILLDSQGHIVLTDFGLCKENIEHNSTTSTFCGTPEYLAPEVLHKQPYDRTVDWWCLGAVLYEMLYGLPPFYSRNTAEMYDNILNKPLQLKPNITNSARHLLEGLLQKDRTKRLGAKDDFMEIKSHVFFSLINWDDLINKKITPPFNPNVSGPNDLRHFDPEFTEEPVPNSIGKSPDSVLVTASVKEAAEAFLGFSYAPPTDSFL

JAK3 = JAK3 (UniProt P52333 781-1124, limits assumed)
AKT2 (PKB beta) = AKT2 (PKB beta) (UniProt P31751 1-481, limits assumed)
PI3Kδ = target: T2, PI3Kδ (UniProt O00329 1-1044, limits assumed)
T2 sequence (looked up): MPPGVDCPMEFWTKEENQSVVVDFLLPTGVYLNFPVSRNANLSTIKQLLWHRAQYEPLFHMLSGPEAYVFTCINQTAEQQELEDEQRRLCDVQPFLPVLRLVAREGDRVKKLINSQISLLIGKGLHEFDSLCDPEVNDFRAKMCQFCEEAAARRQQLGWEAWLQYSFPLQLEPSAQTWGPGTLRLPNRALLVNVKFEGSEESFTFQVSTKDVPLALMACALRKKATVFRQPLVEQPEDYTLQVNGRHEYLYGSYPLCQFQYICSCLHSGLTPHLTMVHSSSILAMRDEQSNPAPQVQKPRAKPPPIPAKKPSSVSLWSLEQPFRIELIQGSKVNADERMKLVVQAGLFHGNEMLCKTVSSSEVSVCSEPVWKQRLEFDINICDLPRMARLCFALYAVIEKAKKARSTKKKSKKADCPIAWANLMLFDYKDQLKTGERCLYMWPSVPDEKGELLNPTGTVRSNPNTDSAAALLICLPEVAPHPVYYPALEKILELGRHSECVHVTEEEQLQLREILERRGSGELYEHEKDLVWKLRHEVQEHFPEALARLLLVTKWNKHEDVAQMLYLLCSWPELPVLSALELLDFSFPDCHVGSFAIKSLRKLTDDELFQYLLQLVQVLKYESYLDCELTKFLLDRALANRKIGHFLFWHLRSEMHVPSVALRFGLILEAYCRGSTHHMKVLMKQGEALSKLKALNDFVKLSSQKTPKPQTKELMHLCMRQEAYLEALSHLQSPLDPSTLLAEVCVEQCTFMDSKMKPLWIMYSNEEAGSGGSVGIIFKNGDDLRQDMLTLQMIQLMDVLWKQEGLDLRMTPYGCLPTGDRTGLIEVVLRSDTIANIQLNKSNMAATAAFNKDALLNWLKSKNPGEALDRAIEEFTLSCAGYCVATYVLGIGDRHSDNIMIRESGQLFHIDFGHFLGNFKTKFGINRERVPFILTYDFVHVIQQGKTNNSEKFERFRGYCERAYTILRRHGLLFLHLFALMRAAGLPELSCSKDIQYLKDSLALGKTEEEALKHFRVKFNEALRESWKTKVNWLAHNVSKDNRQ

PAK3 = PAK3 (UniProt O75914 1-559, limits assumed)
Abl = Abl (UniProt P00519 27-1130, limits assumed)
AKT1 (PKB alpha), active = AKT1 (PKB alpha), active (UniProt P31749 1-480, limits assumed)
TrkB = TrkB (UniProt Q16620 455-822, limits assumed)
RPS6KB1 (p70S6K) = RPS6KB1 (p70S6K) (UniProt P23443 1-421, limits assumed)
Sequence of RPS6KB1 (p70S6K) (P23443 1-421 limits assumed): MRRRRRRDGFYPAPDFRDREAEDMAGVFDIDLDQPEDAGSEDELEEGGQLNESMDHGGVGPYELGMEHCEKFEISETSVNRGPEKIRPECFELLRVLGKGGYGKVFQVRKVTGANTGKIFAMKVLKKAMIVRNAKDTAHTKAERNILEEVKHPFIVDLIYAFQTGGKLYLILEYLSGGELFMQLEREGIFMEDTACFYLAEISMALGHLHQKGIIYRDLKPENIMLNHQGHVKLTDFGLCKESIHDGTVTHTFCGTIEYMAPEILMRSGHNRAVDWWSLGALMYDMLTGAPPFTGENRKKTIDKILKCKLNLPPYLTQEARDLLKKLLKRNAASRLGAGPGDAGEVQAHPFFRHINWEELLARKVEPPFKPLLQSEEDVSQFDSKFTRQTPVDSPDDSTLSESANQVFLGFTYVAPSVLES

Sequence of PAK3 (O75914 whole entry): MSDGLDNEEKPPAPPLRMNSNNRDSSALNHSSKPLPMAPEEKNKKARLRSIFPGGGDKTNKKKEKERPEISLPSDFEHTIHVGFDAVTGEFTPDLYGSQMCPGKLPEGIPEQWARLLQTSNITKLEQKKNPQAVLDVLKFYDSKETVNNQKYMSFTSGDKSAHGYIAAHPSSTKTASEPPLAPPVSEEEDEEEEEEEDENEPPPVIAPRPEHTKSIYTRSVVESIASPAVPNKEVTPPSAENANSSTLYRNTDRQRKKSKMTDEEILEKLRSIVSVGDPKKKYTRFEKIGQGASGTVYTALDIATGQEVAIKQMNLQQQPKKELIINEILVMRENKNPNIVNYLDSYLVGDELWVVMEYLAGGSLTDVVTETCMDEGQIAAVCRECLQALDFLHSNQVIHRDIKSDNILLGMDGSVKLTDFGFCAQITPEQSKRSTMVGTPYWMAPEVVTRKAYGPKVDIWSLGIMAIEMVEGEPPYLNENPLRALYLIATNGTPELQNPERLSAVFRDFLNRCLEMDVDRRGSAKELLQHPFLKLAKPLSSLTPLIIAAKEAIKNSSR
Sequence of AKT2 (PKB beta) (P31751 whole entry): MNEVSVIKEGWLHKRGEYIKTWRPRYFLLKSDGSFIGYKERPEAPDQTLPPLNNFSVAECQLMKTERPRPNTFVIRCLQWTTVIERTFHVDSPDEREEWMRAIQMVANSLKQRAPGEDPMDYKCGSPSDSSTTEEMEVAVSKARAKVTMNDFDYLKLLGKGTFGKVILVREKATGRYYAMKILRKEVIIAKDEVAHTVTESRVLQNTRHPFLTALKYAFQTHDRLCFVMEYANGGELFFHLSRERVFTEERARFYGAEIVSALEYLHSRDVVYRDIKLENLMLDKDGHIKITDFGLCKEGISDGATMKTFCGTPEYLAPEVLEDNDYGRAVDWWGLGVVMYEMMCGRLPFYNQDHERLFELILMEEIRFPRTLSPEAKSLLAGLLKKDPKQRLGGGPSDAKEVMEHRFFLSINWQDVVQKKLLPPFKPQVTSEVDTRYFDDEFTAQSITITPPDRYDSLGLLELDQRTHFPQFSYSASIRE
Sequence of AKT1 (PKB alpha), active (P31749 whole entry): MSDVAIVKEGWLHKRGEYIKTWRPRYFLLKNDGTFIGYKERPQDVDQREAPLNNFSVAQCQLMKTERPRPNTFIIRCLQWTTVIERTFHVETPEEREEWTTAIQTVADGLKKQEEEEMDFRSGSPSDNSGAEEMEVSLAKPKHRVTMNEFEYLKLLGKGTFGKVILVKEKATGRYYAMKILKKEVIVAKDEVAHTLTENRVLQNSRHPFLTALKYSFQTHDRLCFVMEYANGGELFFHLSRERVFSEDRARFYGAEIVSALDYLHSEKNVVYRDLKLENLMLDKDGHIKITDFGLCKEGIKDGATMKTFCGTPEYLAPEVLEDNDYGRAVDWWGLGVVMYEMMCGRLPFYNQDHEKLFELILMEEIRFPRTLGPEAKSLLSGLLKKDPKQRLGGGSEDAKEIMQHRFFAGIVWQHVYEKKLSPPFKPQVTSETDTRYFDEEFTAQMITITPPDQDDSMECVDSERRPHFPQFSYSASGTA
Sequence of Abl (P00519 27-1130 limits assumed): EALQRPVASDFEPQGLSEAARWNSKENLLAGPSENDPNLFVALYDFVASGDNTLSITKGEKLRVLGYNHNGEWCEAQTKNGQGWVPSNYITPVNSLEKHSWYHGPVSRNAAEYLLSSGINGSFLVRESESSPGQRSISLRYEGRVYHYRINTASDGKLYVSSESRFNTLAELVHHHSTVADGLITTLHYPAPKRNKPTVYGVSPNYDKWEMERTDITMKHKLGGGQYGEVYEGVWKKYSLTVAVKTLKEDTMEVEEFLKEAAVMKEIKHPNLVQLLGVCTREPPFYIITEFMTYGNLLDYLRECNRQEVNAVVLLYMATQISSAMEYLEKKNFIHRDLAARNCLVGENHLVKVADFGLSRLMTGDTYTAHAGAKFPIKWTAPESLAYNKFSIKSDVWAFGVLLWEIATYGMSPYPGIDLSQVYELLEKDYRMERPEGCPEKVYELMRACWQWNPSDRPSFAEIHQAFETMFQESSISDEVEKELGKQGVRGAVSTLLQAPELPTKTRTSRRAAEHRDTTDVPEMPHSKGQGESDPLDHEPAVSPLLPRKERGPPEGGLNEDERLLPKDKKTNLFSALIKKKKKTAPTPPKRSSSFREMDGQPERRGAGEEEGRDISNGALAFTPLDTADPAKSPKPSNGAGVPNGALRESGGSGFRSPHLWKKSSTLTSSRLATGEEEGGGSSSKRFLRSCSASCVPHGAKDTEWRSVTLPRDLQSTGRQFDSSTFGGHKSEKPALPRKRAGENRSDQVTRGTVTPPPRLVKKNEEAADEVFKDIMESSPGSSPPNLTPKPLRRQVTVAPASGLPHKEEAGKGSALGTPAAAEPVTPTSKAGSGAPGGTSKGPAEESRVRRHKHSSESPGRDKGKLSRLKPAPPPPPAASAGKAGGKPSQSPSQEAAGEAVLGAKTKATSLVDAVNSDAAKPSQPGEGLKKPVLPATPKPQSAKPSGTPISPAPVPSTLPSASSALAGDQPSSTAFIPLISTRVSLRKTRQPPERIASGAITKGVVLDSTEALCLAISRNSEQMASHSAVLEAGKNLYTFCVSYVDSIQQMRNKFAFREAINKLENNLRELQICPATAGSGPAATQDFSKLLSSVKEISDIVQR
Sequence of JAK3 (P52333 781-1124 limits assumed): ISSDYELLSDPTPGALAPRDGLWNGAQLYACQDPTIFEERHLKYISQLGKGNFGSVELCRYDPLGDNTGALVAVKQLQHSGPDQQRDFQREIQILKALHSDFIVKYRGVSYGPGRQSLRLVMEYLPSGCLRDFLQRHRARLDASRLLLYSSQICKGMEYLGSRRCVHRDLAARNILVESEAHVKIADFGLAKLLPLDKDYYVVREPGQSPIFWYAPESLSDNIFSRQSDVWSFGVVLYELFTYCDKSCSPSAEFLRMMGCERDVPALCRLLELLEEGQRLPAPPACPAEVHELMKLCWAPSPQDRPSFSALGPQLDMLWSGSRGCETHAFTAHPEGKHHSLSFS
Sequence of TrkB (Q16620 455-822 limits assumed): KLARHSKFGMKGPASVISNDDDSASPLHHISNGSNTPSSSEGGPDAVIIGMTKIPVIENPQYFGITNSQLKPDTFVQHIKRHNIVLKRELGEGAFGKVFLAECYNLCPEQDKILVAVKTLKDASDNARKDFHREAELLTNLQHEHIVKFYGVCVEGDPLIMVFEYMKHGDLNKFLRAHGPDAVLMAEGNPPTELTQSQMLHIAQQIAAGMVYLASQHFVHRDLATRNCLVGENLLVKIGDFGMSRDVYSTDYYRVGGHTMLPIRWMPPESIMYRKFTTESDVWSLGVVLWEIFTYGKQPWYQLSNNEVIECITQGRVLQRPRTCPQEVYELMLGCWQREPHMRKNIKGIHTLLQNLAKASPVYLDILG

B1: ZaTa peptide (Ala-Lys-Arg-Val-Lys-Gly-Arg-Thr-Trp-Thr-Leu-Cys-Gly-Thr-Pro-Glu-Tyr) (peptide)
peptide: AKRVKGRTWTLCGTPEY
in vitro kinase assay at ten times the IC50 for AKT1, percent inhibited (SGK (SGK1)): 73%
in vitro kinase assay at ten times the IC50 for AKT1, percent inhibited (JAK3): 79%
in vitro kinase assay at ten times the IC50 for AKT1, percent inhibited (AKT2 (PKB beta)): 63%
in vitro kinase assay at ten times the IC50 for AKT1, percent inhibited (PI3Kδ): 72%
in vitro kinase assay at ten times the IC50 for AKT1, percent inhibited (PAK3): 83%
in vitro kinase assay at ten times the IC50 for AKT1, percent inhibited (Abl): 42%
IC50, AKT1 in vitro catalytic activity (incorporation of γ-32P into Ser-21 GSK-3β substrate peptide) (AKT1 (PKB alpha), active): ~100 nM
in vitro kinase assay at ten times the IC50 for AKT1, percent inhibited (TrkB): 84%
in vitro kinase assay at ten times the IC50 for AKT1, percent inhibited (RPS6KB1 (p70S6K)): 64%
